Data published in patent US20110045008A1.

Molecular target: platelet GPIIIa (integrin beta3) on platelets (human) (UniProt P05106)
Assay: cell-based or functional assay

Sequence of platelet GPIIIa (integrin beta3) on platelets (human) (P05106 27-788): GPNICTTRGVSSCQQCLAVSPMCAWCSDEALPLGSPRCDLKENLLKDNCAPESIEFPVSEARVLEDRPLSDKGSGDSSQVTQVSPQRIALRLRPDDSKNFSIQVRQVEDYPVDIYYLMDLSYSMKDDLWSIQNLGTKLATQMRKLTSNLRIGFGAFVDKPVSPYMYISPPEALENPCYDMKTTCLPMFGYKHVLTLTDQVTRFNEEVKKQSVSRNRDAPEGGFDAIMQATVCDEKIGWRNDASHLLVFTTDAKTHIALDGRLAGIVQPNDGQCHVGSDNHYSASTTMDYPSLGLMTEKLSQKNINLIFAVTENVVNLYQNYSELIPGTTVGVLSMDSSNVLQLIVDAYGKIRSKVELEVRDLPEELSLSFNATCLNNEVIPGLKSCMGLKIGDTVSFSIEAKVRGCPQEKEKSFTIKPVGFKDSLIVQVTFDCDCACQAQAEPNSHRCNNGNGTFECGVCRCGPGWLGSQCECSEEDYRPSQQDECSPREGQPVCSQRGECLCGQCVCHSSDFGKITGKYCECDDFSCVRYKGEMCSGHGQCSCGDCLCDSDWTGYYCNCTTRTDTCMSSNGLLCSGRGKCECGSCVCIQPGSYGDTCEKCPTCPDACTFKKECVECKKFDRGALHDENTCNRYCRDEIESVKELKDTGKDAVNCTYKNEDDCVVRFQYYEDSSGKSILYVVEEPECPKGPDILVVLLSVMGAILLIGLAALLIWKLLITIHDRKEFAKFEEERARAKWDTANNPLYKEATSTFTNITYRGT

platelet fragmentation: 85 µM
Substance: ADAMTS-18 66 amino acid fragment (1156-1221) (from UniProt Q8TE60 1156-1221) (ligand)
